The source of these data is US20250152663A1, “COMPOSITION FOR PREVENTION OR TREATMENT OF DRY EYE DISEASE COMPRISING HAPLN1” (HAPLNSCIENCE INC., priority 2021, published 2025).

For test [1], the system named is mouse dry eye model. The experiment in a line: Tear volume assay (Schirmer's test strip), low-humidity+scopolamine-induced dry eye disease model. The class given is in vivo, C57BL/6. As to the method:
(§1) Corneal fluorescein score assay and tear volume assay were respectively performed on eyeballs of mice treated with the compositions of Preparation Examples 1, 2, and 3 prepared in Example 7 above by using a low-humidity+scopolamine-induced dry eye disease (DED) model.
While the test animals were raised in a desiccating stress chamber with a relative humidity of 30% or less, scopolamine hydrobromide (S0929, Sigma-aldrich) prepared in a concentration of 2.5 mg/mL in saline (0.9% normal saline, JW Pharmaceuticals Corp.) was subcutaneously injected thereinto four times a day (QID: 09:30 AM, 12:00 PM, 15:00 PM, and 17:30 PM) for 10 days at a dose of 10 mL/kg to induce dry eye disease. The subcutaneous injection was performed at the back while moving positions to minimize damage caused by repeated administration. […]
• (1) General anesthesia of the mice was induced (10 mg/kg xylazine and 100 mg/kg ketamine, intraperitoneal injection). • (2) After 3 hours from administration of scopolamine hydrobromide in the morning (at 9:30 AM), measurement was conducted. • (3) The volume of tear was measured by using a Schirmer's test strip cut to ½ thickness. […] Then, one drop (5 μl) of physiological saline was applied to the eyeballs. • (4) A length of a wet portion of the strip was measured by a ruler. […]

The test system of test [2] is mouse dry eye model. Nature of the test: Corneal fluorescein score, low-humidity+scopolamine-induced dry eye disease model. In kind it is in vivo, C57BL/6. As to the method: as §1
When obtaining experimental animals, inspection and quarantines were carried out by referring the microbiological monitoring report of a test system provided by the supplier and observing the appearance of the experimental animals. Animals with no apparent abnormalities were brought into a vivarium and acclimated for 2 weeks in an animal room where tests were conducted. During the quarantine and acclimation period of 2 weeks, health condition and suitability for the experiment were evaluated, and then healthy animals were selected. By using only the animals with no abnormalities during the quarantine and acclimation period, dry eye disease was induced and the degree of corneal damage was evaluated by corneal fluorescein staining, and the test groups were classified by a Z-array method according to clinical scores. A dry eye disease test group consisted of eyeballs with a corneal fluorescein stain score of 7 to 15, and a sham group (normal) consisted of eyeballs not having a corneal fluorescein stains core of 5 or more. […]

Test [3] has as its system CCL-20 secreted by human corneal epithelial cells. The experiment in a line: CCL-20 ELISA under high osmotic pressure. In kind it is cell-based. The following applies: HCEC, 450 mOsM, 5, 10, 20, 50, and 100 ng/ml. The method, then:
In addition, the activity of NFκB that is an important transcription factor in expression of the inflammatory factors was identified by Western blot analysis (FIG. 4B). Preparation of the experiment was performed under the same conditions of those of Cytokine array performed as described above and the ELISA was performed according to the manufacturer's instructions.

B1: hyaluronan and proteoglycan link protein 1 (HAPLN1) (protein, listed as Homo sapiens)
chain: MKSLLLLVLISICWADHLSDNYTLDHDRAIHIQAENGPHLLVEAEQAKVFSHRGGNVTLPCKFYRDPTAFGSGIHKIRIKWTKLTSDYLKEVDVFVSMGYHKKTYGGYQGRVFLKGGSDSDASLVITDLTLEDYGRYKCEVIEGLEDDTVVVALDLQGVVFPYFPRLGRYNLNFHEAQQACLDQDAVIASFDQLYDAWRGGLDWCNAGWLSDGSVQYPITKPREPCGGQNTVPGVRNYGFWDKDKSRYDVFCFTSNFNGRFYYLIHPTKLTYDEAVQACLNDGAQIAKVGQIFAAWKILGYDRCDAGWLADGSVRYPISRPRRRCSPTEAAVRFVGFPDKKHKLYGVYCFRAYN
On to B1, for which, in the test with mouse dry eye model [1] (after 11 days), the “tear volume compared with Cyclosporine A” value is given as “increased the tear volume far more than Cyclosporine A”. Besides, in the test on mouse dry eye model [1] (eye drop 0.5, 5, 50 μg/ml, 5 μL b.i.d., regardless of the concentration, more than Cyclosporine A), the tear volume entry is “consistently increased”. Besides, the “CFS level compared with Cyclosporine A” value with mouse dry eye model [2] (after 11 days) is given as “reduced the CFS level more than Cyclosporine A”. The CFS level entry with mouse dry eye model [2] (eye drop 0.5, 5, 50 μg/ml, 5 μL b.i.d., regardless of the concentration) was “consistently decreased”. The “expression levels of the inflammatory factor CCL20 (ELISA)” value in test [3] is given as “relatively lower than those of the HAPLN1 protein-untreated groups”.
